In ChEMBL document CHEMBL1154868 (J Nat Prod, 2010):

B1: Pyridoxal kinase (Homo sapiens), O00764 (protein)
chain: MEEECRVLSIQSHVIRGYVGNRAATFPLQVLGFEIDAVNSVQFSNHTGYAHWKGQVLNSDELQELYEGLRLNNMNKYDYVLTGYTRDKSFLAMVVDIVQELKQQNPRLVYVCDPVLGDKWDGEGSMYVPEDLLPVYKEKVVPLADIITPNQFEAELLSGRKIHSQEEALRVMDMLHSMGPDTVVITSSDLPSPQGSNYLIVLGSQRRRNPAGSVVMERIRMDIRKVDAVFVGTGDLFAAMLLAWTHKHPNNLKVACEKTVSTLHHVLQRTIQCAKAQAGEGVRPSPMQLELRMVQSKRDIEDPEIVVQATVL

Columns and labels:
physchem = settings: octanol/water
Description: Lipophilicity, log P of the compound

[1] = substrate: Cc1ncc(CO)c(CN)c1O; settings: Homo sapiens
Description: (§1) Activity at human PKH kinase expressed in Escherichia coli by affinity chromatography

[2] = substrate: COCc1c(CO)cnc(C)c1O; settings: Homo sapiens
Description: as §1

[3] = substrate: Cc1ncc(CO)c(C=O)c1O; settings: Homo sapiens
Description: as §1

[4] = substrate: Cc1ncc(CO)c(CO)c1O; settings: Homo sapiens
Description: as §1

Row | Molecule | logP (physchem) | Km [1] [µM] | Km [2] [µM] | Km [3] [µM] | Km [4] [µM]
1 | Cc1ncc(CO)c(C=O)c1O [PYRIDOXAL] | -1.18 |  |  |  | 
2 | B1 |  | 130 | 5 | 59 | 9.9
